From publication PMC12905490, “Identification and functional characterization of two CXCL17 paralogs from zebrafish” (Biochemical Journal, 2026)

Tests used:
[1] = molecular target: sLgBiT-Dr-GPR25 (zebrafish (Danio rerio)); assay: split reporter (BiFC, NanoBiT); NanoBiT-based competition binding: constant 6 × His-SmBiT-Dr-CXCL17-like tracer and varied competitors on living HEK293T cells expressing sLgBiT-Dr-GPR25; serum-free DMEM, 0.1% BSA, 0.01% Tween-20, room temperature ~1 h
sLgBiT-Dr-GPR25 [2] = molecular target: T1, sLgBiT-Dr-GPR25 (zebrafish (Danio rerio), UniProt A0AC58GT18 1-377); assay: split reporter (BiFC, NanoBiT); NanoBiT-based homogeneous saturation binding as before, but sLgBiT-Dr-GPR25 coexpressed with human TPST1 and TPST2 in HEK293T cells; serum-free DMEM, 0.1% BSA, 0.01% Tween-20, room temperature ~1 h; conditions: one partner purified
T1 construct: G protein-coupled receptor 25 (GPR25), zebrafish (Danio rerio); In one experiment it was coexpressed with human TPST1 and TPST2; sulfation of the N-terminal tyrosines is only called potential; The chemotaxis assays used untagged Dr-GPR25 (PB-TRE/Dr-GPR25); also called N-terminally secretory LgBiT-fused Dr-GPR25; zebrafish GPR25; source: HEK293T, transfected (PB-TRE/sLgBiT-Dr-GPR25), Dox-induced, …
T1 sequence (looked up): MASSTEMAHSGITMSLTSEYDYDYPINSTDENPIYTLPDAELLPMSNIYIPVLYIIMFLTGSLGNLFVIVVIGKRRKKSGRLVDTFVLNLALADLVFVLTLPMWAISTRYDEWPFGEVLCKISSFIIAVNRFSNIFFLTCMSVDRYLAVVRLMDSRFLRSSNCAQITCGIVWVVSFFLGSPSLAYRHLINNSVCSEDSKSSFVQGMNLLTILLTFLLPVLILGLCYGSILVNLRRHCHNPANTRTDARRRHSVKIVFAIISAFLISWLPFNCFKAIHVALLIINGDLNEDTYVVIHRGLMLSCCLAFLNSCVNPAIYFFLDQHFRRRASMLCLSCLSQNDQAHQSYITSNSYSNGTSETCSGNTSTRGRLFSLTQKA

sLgBiT-Dr-GPR25 [3] = molecular target: T1, sLgBiT-Dr-GPR25; assay: split reporter (BiFC, NanoBiT); NanoBiT-based homogeneous saturation binding: varied 6 × His-SmBiT-Dr-CXCL17-like on living HEK293T cells overexpressing sLgBiT-Dr-GPR25, without coexpression of TPST1 and TPST2; serum-free DMEM, 0.1% BSA, 0.01% Tween-20, room temperature ~1 h; non-specific binding with 1.0 μM unlabeled 6 × His-Dr-CXCL17-like; conditions: one partner purified
sLgBiT-Dr-GPR25 [4] = molecular target: T1, sLgBiT-Dr-GPR25; assay: split reporter (BiFC, NanoBiT); NanoBiT-based competition binding: constant 6 × His-SmBiT-Dr-CXCL17-like tracer and varied competitors on living HEK293T cells expressing sLgBiT-Dr-GPR25; serum-free DMEM, 0.1% BSA, 0.01% Tween-20, room temperature ~1 h; conditions: one partner purified

For 6 × His-Dr-CXCL17 (ligand), which IC50 [1] is on record?
The IC50 was 380 nM.

B1: 6 × His-SmBiT-Dr-CXCL17-like (ligand, zebrafish (Danio rerio), UniProt A0AB13AB19 26-95, looked up)
chain: QRRSMKQSAVCGCKLYPDKGLKCTKRPNPKSRDEYYEILKCICRDTQIFSKSSRKEYLKRCNKFYPSLPL
notes: Dr-CXCL17-like, zebrafish (Danio rerio, Tübingen strain), mature peptide of 70 amino acids (residues 26-95 of the 95-residue precursor; predicted signal peptide of 25 residues left out); also called tracer; SmBiT-tagged tracer; not shown: His6, N-terminal, kept; SmBiT, N-terminal, kept
With B1 as the molecule, how does the Kd (sLgBiT-Dr-GPR25 [2]) read?
The Kd was 7.1 ± 0.9 nM.

And the Kd (sLgBiT-Dr-GPR25 [3])?
Its Kd is 7.5 nM.

B2: 6 × His-Dr-CXCL17-like (ligand, zebrafish (Danio rerio), UniProt A0AB13AB19 26-95, looked up)
chain: QRRSMKQSAVCGCKLYPDKGLKCTKRPNPKSRDEYYEILKCICRDTQIFSKSSRKEYLKRCNKFYPSLPL
notes: Dr-CXCL17-like, zebrafish (Danio rerio, Tübingen strain), mature peptide of 70 amino acids (residues 26-95 of the 95-residue precursor; predicted signal peptide of 25 residues left out); also called zebrafish CXCL17-like; A0AB13AB19; not shown: His6, N-terminal, kept
With B2 as the molecule, how does the IC50 (sLgBiT-Dr-GPR25 [4]) read?
Its IC50 is roughly 13 nM.

B3: 6 × His-Hs-CXCL17 (ligand, human, UniProt Q6UXB2 22-119, looked up)
chain: SSLNPGVARGHRDRGQASRRWLQEGGQECECKDWFLRAPRRKFMTVSGLPKKQCPCDHFKGNVKKTRHQRHHRKPNKHSRACQQFLKQCQLRSFALPL
notes: C-X-C motif chemokine ligand 17 (CXCL17), human; likely the mature peptide with an N-terminal 6 × His tag, as for the zebrafish proteins (surmised); also called Recombinant human CXCL17; source: recombinant
With B3 as the molecule, how does the IC50 (sLgBiT-Dr-GPR25 [4]) read?
Its IC50 is roughly 230 nM.
